# Measurements reported in paper PMC8549118 (Nature structural & molecular biology, 2021).
# Non-standard residues stand in square brackets, D forms with d. No end group written: not given here. pT = C[C@@H](OP(=O)(O)O)[C@H](N)C(=O)O; pS = N[C@@H](COP(=O)(O)O)C(=O)O
# Target: T1, VSP-C363S (voltage-sensing phosphatase, aa 241-576) (C. intestinalis, UniProt Q4W8A1 241-576, C363S)
# T1 sequence (looked up): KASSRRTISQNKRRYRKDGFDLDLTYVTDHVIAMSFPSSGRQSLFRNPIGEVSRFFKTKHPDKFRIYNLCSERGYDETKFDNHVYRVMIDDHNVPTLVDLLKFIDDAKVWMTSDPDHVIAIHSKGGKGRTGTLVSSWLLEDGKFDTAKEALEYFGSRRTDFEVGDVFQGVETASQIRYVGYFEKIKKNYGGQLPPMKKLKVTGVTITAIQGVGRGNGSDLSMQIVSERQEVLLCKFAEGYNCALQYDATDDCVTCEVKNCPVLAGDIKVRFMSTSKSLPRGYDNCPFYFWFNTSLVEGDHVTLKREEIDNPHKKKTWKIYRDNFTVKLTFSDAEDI
# Assay: fluorescence polarisation
binder,measurement,value
"CRY[pS]D[pT][pT]D[pS]DPENEG [4p-T2, tetraphosphorylated PTEN C-tail peptide (15 aa)]",binding result,binds
